Test results published in article PMC7028737.

Target: Skp1-FBW7 complex (UniProt Q969H0)
Test: ITC; MicroCal VP-ITC, 30 °C, 50 mM phosphate buffer pH 7.4; cell: 15 μM Skp1-FBW7 complex (1400 μL); syringe: 300 μM FIR∆exon2, 25 injections of 10 μL

UniProt Q969H0, sequence (Q969H0 whole entry, chain 1 of 2): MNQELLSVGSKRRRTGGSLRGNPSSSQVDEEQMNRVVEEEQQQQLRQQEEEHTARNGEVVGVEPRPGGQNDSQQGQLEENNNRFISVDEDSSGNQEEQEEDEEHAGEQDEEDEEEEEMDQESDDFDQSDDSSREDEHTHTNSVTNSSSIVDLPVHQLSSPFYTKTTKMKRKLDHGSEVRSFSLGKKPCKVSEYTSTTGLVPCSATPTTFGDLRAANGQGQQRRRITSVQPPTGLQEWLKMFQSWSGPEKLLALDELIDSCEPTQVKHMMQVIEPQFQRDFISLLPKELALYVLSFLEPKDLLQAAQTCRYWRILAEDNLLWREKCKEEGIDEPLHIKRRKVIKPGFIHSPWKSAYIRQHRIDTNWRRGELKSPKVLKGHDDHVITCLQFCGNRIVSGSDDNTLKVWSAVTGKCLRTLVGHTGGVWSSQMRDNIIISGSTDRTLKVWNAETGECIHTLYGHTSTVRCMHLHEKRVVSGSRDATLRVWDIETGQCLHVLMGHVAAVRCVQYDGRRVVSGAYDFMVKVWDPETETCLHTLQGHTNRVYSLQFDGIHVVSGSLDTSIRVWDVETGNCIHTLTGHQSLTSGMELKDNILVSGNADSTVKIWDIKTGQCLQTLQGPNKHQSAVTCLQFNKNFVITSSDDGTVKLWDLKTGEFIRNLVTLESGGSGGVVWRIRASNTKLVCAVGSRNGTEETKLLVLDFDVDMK
UniProt Q969H0, sequence (P63208 whole entry, chain 2 of 2, further chain): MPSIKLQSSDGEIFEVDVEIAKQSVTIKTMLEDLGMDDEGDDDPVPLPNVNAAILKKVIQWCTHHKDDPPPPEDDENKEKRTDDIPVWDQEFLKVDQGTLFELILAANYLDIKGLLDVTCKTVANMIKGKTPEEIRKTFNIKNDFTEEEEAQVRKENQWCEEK

Ka: > 108 M⁻¹
Substance: FIR∆exon2 (recombinant, Nus-tag cleaved) (natural protein)
